The values that follow come from patent publication US20230302104A1, “TREATMENT AND/OR PREVENTION OF A DISEASE OR A SYNDROME RELATED TO A VIRUS INFECTION” (priority 2020, published 2023).

Data set [1] has as its target T1, furin (Homo sapiens, UniProt P09958).
T1 construct: purchased NEB
To be noted: Jean et al. 1998; cited from earlier work.

Data set [2] has as its system IFNγ-mediated activation of human microglial HMC3-MHCII^Luc cells. The data set is described as follows: IFNγ-mediated microglial activation, MHCII-driven luciferase. Format: cell-based. The following applies: MHCII-driven luciferase normalized to cell viability, FIG. 19.
The subject of data set [3] is SARS-CoV-2 spike pseudotyped lentivirus entry in HeLa cells expressing ACE2 only. Format: cell-based. To be noted: 10 µM.
The target in a further data set is T2, cathepsin B (Homo sapiens, UniProt P07858).
T2 construct: purchased R&D Systems
It counts as biochemical. The following applies: 45 min.

The next data set concerns the target T3, PC1 (Homo sapiens, UniProt P29120).
T3 construct: purchased R&D Systems
T3 sequence (P29120 111-753): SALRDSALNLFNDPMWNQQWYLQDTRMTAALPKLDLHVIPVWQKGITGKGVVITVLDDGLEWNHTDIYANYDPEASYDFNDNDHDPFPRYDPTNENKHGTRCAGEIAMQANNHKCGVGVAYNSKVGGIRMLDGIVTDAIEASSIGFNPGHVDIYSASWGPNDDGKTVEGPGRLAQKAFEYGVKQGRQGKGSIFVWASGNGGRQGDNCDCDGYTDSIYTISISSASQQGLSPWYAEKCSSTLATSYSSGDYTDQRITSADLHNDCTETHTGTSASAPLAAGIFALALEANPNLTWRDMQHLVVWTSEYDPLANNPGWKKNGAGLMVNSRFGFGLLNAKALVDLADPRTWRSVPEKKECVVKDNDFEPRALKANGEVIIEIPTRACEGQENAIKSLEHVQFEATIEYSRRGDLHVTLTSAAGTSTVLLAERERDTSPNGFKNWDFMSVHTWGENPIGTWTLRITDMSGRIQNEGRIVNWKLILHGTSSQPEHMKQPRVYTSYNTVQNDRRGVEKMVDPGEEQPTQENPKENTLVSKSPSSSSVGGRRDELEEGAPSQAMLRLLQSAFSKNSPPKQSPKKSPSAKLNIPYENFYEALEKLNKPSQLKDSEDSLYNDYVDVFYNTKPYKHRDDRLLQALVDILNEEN
It counts as biochemical. To be noted: 45 min.

The test system of the next data set is trypsin. Format: biochemical. To be noted: 45 min.
The target in another data set is T4, cathepsin L (Homo sapiens, UniProt P07711).
T4 construct: purchased R&D Systems
T4 sequence (P07711 114-333): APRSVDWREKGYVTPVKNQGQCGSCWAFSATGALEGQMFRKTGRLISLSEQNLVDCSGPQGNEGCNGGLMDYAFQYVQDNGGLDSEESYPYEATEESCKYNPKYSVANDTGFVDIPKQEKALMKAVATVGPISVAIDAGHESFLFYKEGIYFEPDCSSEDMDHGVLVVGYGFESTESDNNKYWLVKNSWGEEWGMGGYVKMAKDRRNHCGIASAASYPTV
Format: biochemical. To be noted: 45 min.

The target in data set [4] is T1, furin. Format: biochemical. The following applies: 45 min.
Data set [5] concerns ACE2/SARS-CoV-2 spike mediated cell fusion of HeLa cells. Format: cell-based, human. The following applies: 24 h.
The target of a further data set is T5, matriptase (Homo sapiens, UniProt Q9Y5Y6).
T5 construct: purchased R&D Systems
T5 sequence (Q9Y5Y6 1-855): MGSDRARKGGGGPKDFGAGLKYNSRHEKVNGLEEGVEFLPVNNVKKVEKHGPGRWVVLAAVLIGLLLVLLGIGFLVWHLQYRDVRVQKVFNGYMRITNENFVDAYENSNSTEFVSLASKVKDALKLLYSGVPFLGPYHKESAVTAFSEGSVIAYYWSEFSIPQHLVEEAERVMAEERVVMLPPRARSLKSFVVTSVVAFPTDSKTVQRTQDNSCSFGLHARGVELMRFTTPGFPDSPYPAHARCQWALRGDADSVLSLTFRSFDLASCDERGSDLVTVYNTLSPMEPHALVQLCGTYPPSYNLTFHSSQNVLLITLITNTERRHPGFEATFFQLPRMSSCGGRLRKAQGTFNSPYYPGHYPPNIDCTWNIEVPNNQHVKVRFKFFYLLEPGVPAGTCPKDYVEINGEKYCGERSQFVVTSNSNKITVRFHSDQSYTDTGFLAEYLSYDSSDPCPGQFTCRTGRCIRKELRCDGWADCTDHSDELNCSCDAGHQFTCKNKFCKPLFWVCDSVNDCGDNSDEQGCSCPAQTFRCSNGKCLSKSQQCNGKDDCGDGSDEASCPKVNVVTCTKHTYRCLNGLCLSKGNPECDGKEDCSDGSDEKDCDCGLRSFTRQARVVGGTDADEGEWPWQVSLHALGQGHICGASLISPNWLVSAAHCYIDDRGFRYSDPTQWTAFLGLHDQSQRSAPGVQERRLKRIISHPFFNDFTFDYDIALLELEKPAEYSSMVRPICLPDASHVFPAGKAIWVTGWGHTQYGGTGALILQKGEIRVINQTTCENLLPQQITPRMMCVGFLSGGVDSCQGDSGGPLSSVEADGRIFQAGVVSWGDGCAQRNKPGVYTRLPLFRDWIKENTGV
It counts as biochemical. To be noted: 45 min.

The target in data set [6] is T6, elastase (ELA1) from pig pancreas (Sus scrofa, UniProt P00772).
T6 construct: elastase (ELA1) from pig pancreas 0.25U/mL; purchased molecular probes (Sigma-Aldrich) E-12056; host or cells: pig pancreas
T6 sequence (P00772 27-266): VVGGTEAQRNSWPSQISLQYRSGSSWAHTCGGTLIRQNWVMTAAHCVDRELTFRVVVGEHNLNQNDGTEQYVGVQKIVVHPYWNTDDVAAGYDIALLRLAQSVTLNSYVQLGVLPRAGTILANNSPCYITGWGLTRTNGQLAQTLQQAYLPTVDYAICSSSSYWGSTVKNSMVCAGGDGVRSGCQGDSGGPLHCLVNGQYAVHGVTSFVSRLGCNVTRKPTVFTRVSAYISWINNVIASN
It counts as biochemical.

A further data set concerns the target T7, TMPRSS2 (Homo sapiens, UniProt O15393).
T7 construct: purchased creative biomart
It counts as biochemical. The following applies: 45 min.

Data set [7] has as its system MERS-CoV pseudovirus entry in Caco2 human colorectal adenocarcinoma cells. It counts as cell-based.

T1 sequence (P09958 108-794): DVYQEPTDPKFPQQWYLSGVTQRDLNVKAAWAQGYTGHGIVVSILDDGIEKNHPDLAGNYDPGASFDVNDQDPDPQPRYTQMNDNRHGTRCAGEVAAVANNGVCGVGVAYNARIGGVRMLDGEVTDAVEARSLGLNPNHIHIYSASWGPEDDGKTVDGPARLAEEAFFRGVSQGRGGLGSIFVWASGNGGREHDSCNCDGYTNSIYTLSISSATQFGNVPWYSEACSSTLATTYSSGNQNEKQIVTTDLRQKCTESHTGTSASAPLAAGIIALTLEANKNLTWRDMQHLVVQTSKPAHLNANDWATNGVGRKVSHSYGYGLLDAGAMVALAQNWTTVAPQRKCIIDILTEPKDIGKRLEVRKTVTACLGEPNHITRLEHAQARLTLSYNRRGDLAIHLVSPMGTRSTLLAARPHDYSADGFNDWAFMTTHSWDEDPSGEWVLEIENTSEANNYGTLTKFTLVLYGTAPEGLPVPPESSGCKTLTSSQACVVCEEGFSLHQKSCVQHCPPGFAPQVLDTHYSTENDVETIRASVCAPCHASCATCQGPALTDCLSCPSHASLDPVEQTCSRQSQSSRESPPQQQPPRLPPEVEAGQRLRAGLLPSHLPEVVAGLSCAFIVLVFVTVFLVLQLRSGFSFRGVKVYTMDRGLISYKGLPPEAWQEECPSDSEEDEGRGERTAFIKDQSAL
T7 sequence (O15393 whole entry): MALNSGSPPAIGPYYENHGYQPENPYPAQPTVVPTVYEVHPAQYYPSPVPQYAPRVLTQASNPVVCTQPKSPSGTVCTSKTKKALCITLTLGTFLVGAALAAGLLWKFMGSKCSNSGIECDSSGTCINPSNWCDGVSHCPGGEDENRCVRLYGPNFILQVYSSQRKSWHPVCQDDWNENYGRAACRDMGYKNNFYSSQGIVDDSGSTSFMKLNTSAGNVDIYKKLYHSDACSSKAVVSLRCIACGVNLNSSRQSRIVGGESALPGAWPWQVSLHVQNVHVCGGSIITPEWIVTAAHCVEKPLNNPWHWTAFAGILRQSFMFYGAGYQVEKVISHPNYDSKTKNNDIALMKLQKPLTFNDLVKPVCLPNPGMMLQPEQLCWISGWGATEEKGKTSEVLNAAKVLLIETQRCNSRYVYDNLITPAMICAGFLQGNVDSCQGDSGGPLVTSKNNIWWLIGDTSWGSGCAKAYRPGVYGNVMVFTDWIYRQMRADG

Regarding Alpha1-antitrypsin Portland, the activity on furin result in the data set with furin [1] was “strong and selective activity”.

On to plasma derived AAT, for which, in [2], the “IFNγ-mediated microglial activation (inflammation)” value is reported as “Effect is observed”. The “inhibitory effect on SARS-CoV-2 pseudoviral cell-entry” value in data set [3] is reported as “up to 25%”.

On to rhAAT, for which, in the data set with cathepsin B, the “cathepsin B protease activity” value is “inhibits cathepsin B protease activity”. In addition, in the data set with PC1, the PC1 protease activity entry is given as “inhibits PC1 protease activity”. The trypsin protease activity result in the data set on trypsin is on record as “inhibits trypsin protease activity”. In addition, the figures for the “IFNγ-mediated microglial activation (inflammation)” value in data set [2] and in data set [2] (listed as recombinant AAT) were “reduces inflammation” and “Effect is observed”, respectively. In the data set with cathepsin L, the “cathepsin L protease activity” value is listed as “inhibits cathepsin L protease activity”. In addition, the furin protease activity entry in the data set with furin [4] is on record as “inhibits furin protease activity”. The “inhibitory effect on SARS-CoV-2 spike mediated cell fusion” value in [5] was “more effectively than plasma derived AAT”. Besides, the matriptase protease activity result with matriptase was “inhibits matriptase protease activity”. The elastase protease activity result in [6] is reported as “inhibits elastase protease activity”. Besides, the TMPRSS2 protease activity entry in the data set with TMPRSS2 is “inhibits TMPRSS2 protease activity”. In data set [7], the MERS-CoV pseudovirus entry entry is reported as “inhibits viral entry of several viruses”.
